Data on eight molecules can be found in patent US20170266254A1 (AILERON THERAPEUTICS, published 2017).

Numbering of substitutions follows the chain as printed. Bridges are numbered along the chain shown (N, C = ends). [ ]: non-standard residue; d: D form. S5 = C=CCCC[C@](C)(N)C(=O)O

The assay concerns the target T1, C-terminally 6x Histidine-tagged Beta-Catenin (aa 134-668, 59 KD) (UniProt P35222 134-668).
T1 construct: range 134-668; Armadillo repeat region
T1 sequence: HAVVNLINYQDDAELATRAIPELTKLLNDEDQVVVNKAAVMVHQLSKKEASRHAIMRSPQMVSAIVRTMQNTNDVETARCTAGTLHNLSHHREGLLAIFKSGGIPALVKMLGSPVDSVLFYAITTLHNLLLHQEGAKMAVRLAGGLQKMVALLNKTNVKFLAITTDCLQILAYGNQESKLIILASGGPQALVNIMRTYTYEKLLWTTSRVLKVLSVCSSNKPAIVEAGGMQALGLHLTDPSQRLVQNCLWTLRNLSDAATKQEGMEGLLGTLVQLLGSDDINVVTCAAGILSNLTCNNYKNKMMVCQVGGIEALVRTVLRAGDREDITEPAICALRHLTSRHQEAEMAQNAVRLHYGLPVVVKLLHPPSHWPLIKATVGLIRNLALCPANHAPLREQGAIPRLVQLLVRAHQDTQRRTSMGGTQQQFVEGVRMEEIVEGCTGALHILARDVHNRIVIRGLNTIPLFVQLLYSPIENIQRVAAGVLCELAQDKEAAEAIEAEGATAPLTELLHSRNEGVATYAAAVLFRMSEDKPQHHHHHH
Briefly: competitive fluorescence polarization, FAM-labelled linear probe as competitor, His-tagged beta-catenin 134-668. How it is done:
The following experiments are performed at room temperature unless otherwise noted. First, an assay buffer is prepared composed of 25 mM Tris-Hcl pH 7.5, 200 mM Sodium Chloride, and 5 mM CHAPS. Next, 1M DTT is added to assay buffer to a final concentration of 2 mM. […] Forty μl of this protein stock is added to all but six wells of a 96 well plate (which will serve as the free peptide and Blank). Test competitor peptides are diluted from 1 mM DMSO stocks to 2× working stocks in assay buffer. Further dilutions are made in assay buffer-DMSO as to maintain a constant DMSO concentration in all wells. The dilution is carried out such that the peptides have a working concentration range of 40 μM-0.7 μM (2×). As a benchmark, a linear, non-crosslinked peptide competitor is prepared as above but with a working concentration range of 13-0.7 μM. Fifty μl of the competitor 2× stocks are added to the 40 μl of protein solution previously transferred into the assay 96 well plate. Next, a 10× stock of the fluorescent probe is prepared. The probe is identical to the linear benchmark peptide except for the n-terminal conjugation of a FAM flourophore with Beta-Alanine spacer. A 1 mM DMSO stock of the probe is serially diluted to a final concentration of 25 nM (10×) and 10 μl of this stock is added to all wells except for those that will serve as the blank. The assay plate is stored in the dark and the reaction is allowed to run at room temperature for three hours. The reaction is then read on a Biotek Synergy 2 with the following settings: 100 ms delay, 40 measurements per well, with excitation filters of […], and emission filters of […]. Data is then analyzed in Graphpad Prism.

B1: SP31 (peptide)
peptide: Ac-LGANDELISFKDEGEQEEKSSENSSAE[S5]DLA[S5]VKSSLV-NH2
modifications: staple 28-32
SMILES: CC[C@H](C)[C@H](NC(=O)[C@H](CC(C)C)NC(=O)[C@H](CCC(=O)O)NC(=O)[C@H](CC(=O)O)NC(=O)[C@H](CC(N)=O)NC(=O)[C@H](C)NC(=O)CNC(=O)[C@H](CC(C)C)NC(C)=O)C(=O)N[C@@H](CO)C(=O)N[C@@H](Cc1ccccc1)C(=O)N[C@@H](CCCCN)C(=O)N[C@@H](CC(=O)O)C(=O)N[C@@H](CCC(=O)O)C(=O)NCC(=O)N[C@@H](CCC(=O)O)C(=O)N[C@@H](CCC(N)=O)C(=O)N[C@@H](CCC(=O)O)C(=O)N[C@@H](CCC(=O)O)C(=O)N[C@@H](CCCCN)C(=O)N[C@@H](CO)C(=O)N[C@@H](CO)C(=O)N[C@@H](CCC(=O)O)C(=O)N[C@@H](CC(N)=O)C(=O)N[C@@H](CO)C(=O)N[C@@H](CO)C(=O)N[C@@H](C)C(=O)N[C@@H](CCC(=O)O)C(=O)N[C@@]1(C)CCCC=CCCC[C@@](C)(C(=O)N[C@H](C(=O)N[C@@H](CCCCN)C(=O)N[C@@H](CO)C(=O)N[C@@H](CO)C(=O)N[C@@H](CC(C)C)C(=O)N[C@H](C(N)=O)C(C)C)C(C)C)NC(=O)[C@H](C)NC(=O)[C@H](CC(C)C)NC(=O)[C@H](CC(=O)O)NC1=O
For the molecule B1, the concentration for half-maximal inhibition (IC50) was determined as 248 nM.

B2: SP47 (peptide)
peptide: Ac-LGANDELISF[S5]DEG[S5]QEEKSSENSSA[S5]RDL[S5]NVKSSLV-NH2
modifications: staple 11-15, 27-31
SMILES: CC[C@H](C)[C@H](NC(=O)[C@H](CC(C)C)NC(=O)[C@H](CCC(=O)O)NC(=O)[C@H](CC(=O)O)NC(=O)[C@H](CC(N)=O)NC(=O)[C@H](C)NC(=O)CNC(=O)[C@H](CC(C)C)NC(C)=O)C(=O)N[C@@H](CO)C(=O)N[C@@H](Cc1ccccc1)C(=O)N[C@@]1(C)CCCC=CCCC[C@@](C)(C(=O)N[C@@H](CCC(N)=O)C(=O)N[C@@H](CCC(=O)O)C(=O)N[C@@H](CCC(=O)O)C(=O)N[C@@H](CCCCN)C(=O)N[C@@H](CO)C(=O)N[C@@H](CO)C(=O)N[C@@H](CCC(=O)O)C(=O)N[C@@H](CC(N)=O)C(=O)N[C@@H](CO)C(=O)N[C@@H](CO)C(=O)N[C@@H](C)C(=O)N[C@@]2(C)CCCC=CCCC[C@@](C)(C(=O)N[C@@H](CC(N)=O)C(=O)N[C@H](C(=O)N[C@@H](CCCCN)C(=O)N[C@@H](CO)C(=O)N[C@@H](CO)C(=O)N[C@@H](CC(C)C)C(=O)N[C@H](C(N)=O)C(C)C)C(C)C)NC(=O)[C@H](CC(C)C)NC(=O)[C@H](CC(=O)O)NC(=O)[C@H](CCCNC(=N)N)NC2=O)NC(=O)CNC(=O)[C@H](CCC(=O)O)NC(=O)[C@H](CC(=O)O)NC1=O
Regarding B2, the IC50 is 176 nM.

B3: SP57 (peptide)
peptide: LGANDELISFANQGAQEEKSSNNSSAARNLADVKSSLV
modifications: not fully specified; N-terminal acetyl; C-terminal amide; $ = (S)-alpha-(2'-pentenyl)alanine at positions 11 and 15 (first crosslink) and 27 and 31 (second crosslink), each pair joined by an all-carbon crosslinker with one double bond
For the molecule B3, the IC50 was 407 nM.

B4: SP58 (peptide)
peptide: Ac-LGANDELLSF[S5]DEG[S5]QQEKSSENSSA[S5]RDL[S5]NVKSSLV-NH2
modifications: staple 11-15, 27-31
SMILES: CC(=O)N[C@@H](CC(C)C)C(=O)NCC(=O)N[C@@H](C)C(=O)N[C@@H](CC(N)=O)C(=O)N[C@@H](CC(=O)O)C(=O)N[C@@H](CCC(=O)O)C(=O)N[C@@H](CC(C)C)C(=O)N[C@@H](CC(C)C)C(=O)N[C@@H](CO)C(=O)N[C@@H](Cc1ccccc1)C(=O)N[C@@]1(C)CCCC=CCCC[C@@](C)(C(=O)N[C@@H](CCC(N)=O)C(=O)N[C@@H](CCC(N)=O)C(=O)N[C@@H](CCC(=O)O)C(=O)N[C@@H](CCCCN)C(=O)N[C@@H](CO)C(=O)N[C@@H](CO)C(=O)N[C@@H](CCC(=O)O)C(=O)N[C@@H](CC(N)=O)C(=O)N[C@@H](CO)C(=O)N[C@@H](CO)C(=O)N[C@@H](C)C(=O)N[C@@]2(C)CCCC=CCCC[C@@](C)(C(=O)N[C@@H](CC(N)=O)C(=O)N[C@H](C(=O)N[C@@H](CCCCN)C(=O)N[C@@H](CO)C(=O)N[C@@H](CO)C(=O)N[C@@H](CC(C)C)C(=O)N[C@H](C(N)=O)C(C)C)C(C)C)NC(=O)[C@H](CC(C)C)NC(=O)[C@H](CC(=O)O)NC(=O)[C@H](CCCNC(=N)N)NC2=O)NC(=O)CNC(=O)[C@H](CCC(=O)O)NC(=O)[C@H](CC(=O)O)NC1=O
B4: the IC50 came to 324 nM.

B5: SP49 (peptide)
peptide: Ac-LGANDELISF[S5]DEG[S5]QQQKSSENSSA[S5]RDL[S5]NVKSSLV-NH2
modifications: staple 11-15, 27-31
SMILES: CC[C@H](C)[C@H](NC(=O)[C@H](CC(C)C)NC(=O)[C@H](CCC(=O)O)NC(=O)[C@H](CC(=O)O)NC(=O)[C@H](CC(N)=O)NC(=O)[C@H](C)NC(=O)CNC(=O)[C@H](CC(C)C)NC(C)=O)C(=O)N[C@@H](CO)C(=O)N[C@@H](Cc1ccccc1)C(=O)N[C@@]1(C)CCCC=CCCC[C@@](C)(C(=O)N[C@@H](CCC(N)=O)C(=O)N[C@@H](CCC(N)=O)C(=O)N[C@@H](CCC(N)=O)C(=O)N[C@@H](CCCCN)C(=O)N[C@@H](CO)C(=O)N[C@@H](CO)C(=O)N[C@@H](CCC(=O)O)C(=O)N[C@@H](CC(N)=O)C(=O)N[C@@H](CO)C(=O)N[C@@H](CO)C(=O)N[C@@H](C)C(=O)N[C@@]2(C)CCCC=CCCC[C@@](C)(C(=O)N[C@@H](CC(N)=O)C(=O)N[C@H](C(=O)N[C@@H](CCCCN)C(=O)N[C@@H](CO)C(=O)N[C@@H](CO)C(=O)N[C@@H](CC(C)C)C(=O)N[C@H](C(N)=O)C(C)C)C(C)C)NC(=O)[C@H](CC(C)C)NC(=O)[C@H](CC(=O)O)NC(=O)[C@H](CCCNC(=N)N)NC2=O)NC(=O)CNC(=O)[C@H](CCC(=O)O)NC(=O)[C@H](CC(=O)O)NC1=O
With B5, the IC50 is 1650 nM.

B6: SP59 (peptide)
peptide: B3 peptide with N12D, Q13E, N29D, D32A
modifications: not fully specified; N-terminal acetyl; C-terminal amide; $ = (S)-alpha-(2'-pentenyl)alanine at positions 11 and 15 (first crosslink) and 27 and 31 (second crosslink), each pair joined by an all-carbon crosslinker with one double bond
B6: the IC50 worked out at 300 nM.

B7: SP48 (peptide)
peptide: Ac-LGANDELISF[S5]DQG[S5]QEQKSSENSSA[S5]RDL[S5]NVKSSLV-NH2
modifications: staple 11-15, 27-31
SMILES: CC[C@H](C)[C@H](NC(=O)[C@H](CC(C)C)NC(=O)[C@H](CCC(=O)O)NC(=O)[C@H](CC(=O)O)NC(=O)[C@H](CC(N)=O)NC(=O)[C@H](C)NC(=O)CNC(=O)[C@H](CC(C)C)NC(C)=O)C(=O)N[C@@H](CO)C(=O)N[C@@H](Cc1ccccc1)C(=O)N[C@@]1(C)CCCC=CCCC[C@@](C)(C(=O)N[C@@H](CCC(N)=O)C(=O)N[C@@H](CCC(=O)O)C(=O)N[C@@H](CCC(N)=O)C(=O)N[C@@H](CCCCN)C(=O)N[C@@H](CO)C(=O)N[C@@H](CO)C(=O)N[C@@H](CCC(=O)O)C(=O)N[C@@H](CC(N)=O)C(=O)N[C@@H](CO)C(=O)N[C@@H](CO)C(=O)N[C@@H](C)C(=O)N[C@@]2(C)CCCC=CCCC[C@@](C)(C(=O)N[C@@H](CC(N)=O)C(=O)N[C@H](C(=O)N[C@@H](CCCCN)C(=O)N[C@@H](CO)C(=O)N[C@@H](CO)C(=O)N[C@@H](CC(C)C)C(=O)N[C@H](C(N)=O)C(C)C)C(C)C)NC(=O)[C@H](CC(C)C)NC(=O)[C@H](CC(=O)O)NC(=O)[C@H](CCCNC(=N)N)NC2=O)NC(=O)CNC(=O)[C@H](CCC(N)=O)NC(=O)[C@H](CC(=O)O)NC1=O
Regarding B7, the IC50 is 461 nM.

B8: SP38 (peptide)
peptide: LGANDELISFADEGAQEEKSSNNSSAEADLAAVKSSLV
modifications: not fully specified; N-terminal acetyl; C-terminal amide; $ = (S)-alpha-(2'-pentenyl)alanine at positions 11 and 15 (first crosslink) and 28 and 32 (second crosslink), each pair joined by an all-carbon crosslinker with one double bond
On to B8, for which the IC50 worked out at 83 nM.
